The target in this assay is Alexa Fluor 488 labeled α-synuclein (UniProt P37840). Put plainly: MST; apparent; constant 50 nM αS-AF488, dilution series of 16 HSA concentrations (50 μM to 6.25 nM); 10 mM Na2HPO4, 1.8 mM KH2PO4, 137 mM NaCl, 2.7 mM KCl, pH 7.4; Monolith NT.115, LED power 20%, MST power 20, 40 and 80%, data normalised and averaged.

pKd: −log10 of the molar value.

Broadly, the pKd is the negative decadic logarithm of the Kd, by convention in mol/L. With “human serum albumin (from UniProt P02768 25-609) (natural protein)”, the negative-log Kd (pKd) was 6.52.

For the origin of these results see PMC9986870.
